Assay results from US20150361165A1 (SYDDANSK UNIVERSITET, published 2015).

What was measured:
[1] = molecular target: T1, human MFAP4 in tissue (human mammary artery) (human, UniProt P55083 22-255); experiment: immunohistochemistry on human mammary artery
T1 construct: Native protein detected by immunohistochemistry
T1 sequence (looked up): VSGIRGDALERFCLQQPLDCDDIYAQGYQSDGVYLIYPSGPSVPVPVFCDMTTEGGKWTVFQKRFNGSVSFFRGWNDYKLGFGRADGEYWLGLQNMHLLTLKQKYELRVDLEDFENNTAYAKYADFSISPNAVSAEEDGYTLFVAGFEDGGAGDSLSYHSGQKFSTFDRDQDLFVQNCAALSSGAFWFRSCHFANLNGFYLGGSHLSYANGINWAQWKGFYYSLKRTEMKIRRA

[2] = molecular target: T2, mouse MFAP4 in tissue (mouse aorta) (mouse, UniProt Q9D1H9 23-257); experiment: immunohistochemistry on mouse aorta; no signal in mfap4-/- tissue
T2 construct: Native protein detected by immunohistochemistry; signal absent in mfap4-/- tissue; also called mouse MFAP4 homologue
T2 sequence (looked up): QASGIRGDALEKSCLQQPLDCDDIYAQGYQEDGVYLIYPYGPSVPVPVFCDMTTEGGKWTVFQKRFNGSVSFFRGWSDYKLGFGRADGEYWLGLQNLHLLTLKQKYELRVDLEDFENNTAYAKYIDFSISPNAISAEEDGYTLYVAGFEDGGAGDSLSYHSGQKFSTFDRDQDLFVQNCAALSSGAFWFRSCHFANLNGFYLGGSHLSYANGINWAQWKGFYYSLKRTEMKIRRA

- binding result [1]: binds
- binding result [2]: binds
B1: HG-HYB 7-14 (antibody, V domains shown)
VH: EVKVVESGGGLVQPGGSLRLSCATSGFTFSDFYMEWVRQPPGKRLEWIAASRNKANDYTTEYSASVKGRFIVSRDTSQSILYLQLNALRAEDTAIYYCARNYYDSSYWYFDVWGAGTTVTVSS
VL: DIVLTQSPSYLAASPGETITINCRASKSISKYLAWYQERPGKTNKLLIYSGSTLQSGIPSRFSGSGSGTDFTLTISSLEPEDFAMYYCQQHNEYPFTFGAGTKLELK
notes: Monoclonal antibody raised in MFAP4-deficient C57BL/6N mice against rMFAP4; also called FITC-anti-MFAP4 (HG-HYB 7-14)
